Tested on: K4 kissing-loop RNA reporter
Assay: apparent KD of K4 kissing-loop reporter; higher = weaker reporter binding
Conditions: Eterna round: R107
Procedure: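 RNA-MaP round R107: designed RNA switches with theophylline, tryptophan, arginine or FMN aptamers are transcribed on-chip within common flanks. They are titrated with a labelled K4 kissing-loop RNA reporter in RNA-MaP buffer (100 mM Tris pH 7.5, 80 mM KCl, 4 mM MgCl2), without ligand or with the indicated ligand. Median apparent KD per design.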

[1] = input ligand: theophylline 20 uM
[2] = input ligand: tryptophan 2.4 mM
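Note: bound reporter read as fluorescence of individual clusters on recovered sequencing chips by microscopy, with normalized cluster intensities fitted with a binding model.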

Sequence	apparent KD of K4 kissing-loop reporter (input ligand: FMN 200 uM)	apparent KD of K4 kissing-loop reporter (input ligand: arginine 13.2 mM)	apparent KD of K4 kissing-loop reporter (input ligand: none)	apparent KD of K4 kissing-loop reporter [1]	apparent KD of K4 kissing-loop reporter [2]
GCAGUGAUGUUGCGGAUGUACAGUGGCGUGCGAGGACCGGUACGGCCGCCACUCGUACAGAGCCAGCUAAUACAUCGAUUGGUGA [whbob_SS_Tryp_A_m7]	387 nM	176 nM	206 nM	157 nM	212 nM
AGUCUGUAUGACAUAAGUGAUGUUUAUGUUCGAGGACCGGUACGGCCGCCACUCGCAAAUGUAUGAUUUCACGUUUGUGCAAGUA [KL-XTryp-A #analogue]	196 nM	183 nM	207 nM	220 nM	292 nM
UAAUUUAUGUCUUUAAUAUAAUAAUCAGAUACCAGUGAUUUAUGACACCCUUGGCAGCUGUAUAGAGUGAUGUUCUUAUACAUAA [JR_Nu_ExcTheophyA_Sub020]	388 nM	504 nM	483 nM	547 nM	294 nM
CCUGCGGCUUCCGGCGGGCCCGAUUUAUAAAAGGAUAUGUGCGUACACAGAAGGUUUAACGAGGGACCGAGAGUGAUGUUCUCCU [theeternabot_sameState_KL_FMN_A_33]	585 nM	174 nM	316 nM	370 nM	418 nM
UGUCAUUGGUCGGCCGCCACUUCAAGGUCAAAGACCAGAGUGAUGUUCUUGCACAAAGUGCUUAGAAGGACCGGGACCGAUGACU [TrypBS 13 #SwitchBubble #K4Middle]	738 nM	467 nM	625 nM	413 nM	622 nM
AAGUGUGUGGCGGCCGCCACUAGAAUCCAGUGAUGUUGGAGAUAUCACGUAAGUGAUAUCCAUCAUAGGACCGGGCCAUAUAGAA [Same State - Tryptophan B (Freestyle 18)]	675 nM	389 nM	945 nM	1280 nM	755 nM
UAAUAAAUUCUGGCAAUGUCACUCUUCGAAGGAGCGGACGAAAGUCCAGGUAGGUCGCGAAGAGUGAUGUUCUUCGCGGCGCCAG [Omei KL Arginine A Exc A v1]	299 nM	235 nM	235 nM	304 nM	268 nM
UGUAUGUGAUUUGAUACCAGACCAGCUGGUGGUACCUGAGUGAUGUUCGGGAUGGUUUGGGUCCCUUGGCAGCAAAUCGCAUACU [KL-SSTheoB20]	251 nM	144 nM	164 nM	148 nM	170 nM
CCAAUCAGUUACGAUACCAGUCUAAUAUAUUUGAUCAAAACCCUCGCCGAGUGAUGUUCGGACCCUUGGCAGCGUCUGGGACAGG [fcctmullin]	502 nM	417 nM	446 nM	474 nM	394 nM
AGAGUUAUGCGAGGAUAUGCAGUUAGUACUCAAAGAGUACUAACGCAGAGUGAUGUUCUGUGAAAUGCAGAAGGUGCAUAACUCA [Omei KL FMN B SS B v5]	157 nM	316 nM	330 nM	316 nM	289 nM
CCGGGCGGCCGAAGGAGCGGGCGGGCCCGAGUGAUGUUCGGGUGGACCGUGAGGUCCGGUGCCCAGGUAGGUCGCGGUUCCGCCC [#2 Same State - Arginine B Attempt #7 (HarryS)]	156 nM	123 nM	157 nM	115 nM	134 nM
AAUACGCCGAAAGGAUAUAUAGAACAUCAAGGGCGCUGACUUUGCUAAAUCACAAGUGAUGUUUGUAUAGAAGGUUCGCAGUCAA [theeternabot_exclusion_KL_FMN_B_30]	245 nM	427 nM	500 nM	452 nM	437 nM
CUGAGCCUGACGAAAGUCAGGCUCUGCGAGCGAGGACCGGUACGGCCGCCACUCGGUGCAGUGAUGUUGCAUGGCCGCAAGGCCG [#2 Exclusion - Tryptophan A Attempt #18 (HarryS)]	263 nM	289 nM	207 nM	256 nM	262 nM
CGUUCCUCUGUCGAUACCAGCUUCAGUUGGCGGCCAGUGAUGUUGGUAUUGCCGAUGCCAAGCCCUUGGCAGCGAUAUGAGACCC [Aredi]	572 nM	403 nM	597 nM	265 nM	439 nM
AUUAUAAAGUCGGCCGCCACUGAGAGUAGUGAUGUUACUCUAUUCCUUUAGAUAUUAUAUUUUAUCAGGACCGGGACAUCAGAUU [JR_ExcTryptoB_Sub019]	332 nM	341 nM	317 nM	290 nM	228 nM
UAUAUAGUGACGGCCGCCACUAUUGUGAUUUAAUUGUUAGAGUGAUGUUUUGUUGUUUGAUUUUGUAGGACCGGGUUAUAUGUUA [vnbbwzmullin]	1090 nM	851 nM	982 nM	794 nM	839 nM
GUAAUCUUGCUCGAGUGAUGUUCGAGCGAAGGAGCGCGAGAAAUCGCAGGUAGGUCGCGCUCGAAAUAUGAGCGAACAAUUAUUA [Arg A Ex t2b]	222 nM	197 nM	220 nM	219 nM	230 nM
GCAGGACGAUGAGGAGGAUGAAUUACUGAAGGAGCGCAUAUGGUUGCAGGUAGGUCGCGGUGAACAAGUAUAGUGAUGUUAUAUC [SSArgA.R]	755 nM	179 nM	138 nM	471 nM	1050 nM
CCAUCGCUAUUCGAUACCAGCUCCUUAGUGAUGUUAAGGUUUUACGCUCUGUAGGAGCGAAGCCCUUGGCAGCGAGUAGUGAUGG [#04 K4 Theophylline B Same State]	1120 nM	832 nM	1060 nM	716 nM	1110 nM
AAUAACUUGCAGUGAUGUUGCAAGAAAUCUCAGGAUAUCAGGAAACUGAGAAGGGAGUAUCCUGAGUAAACAUCACAUCUUAGGA [KL-SSFMN-A8]	322 nM	364 nM	399 nM	376 nM	369 nM

Source: the supplement of paper PMC9170038
